Measured values published in paper PMC7840605, “3-Hydroxyphthalic Anhydride-Modified Chicken Ovalbumin as a Potential Candidate Inhibits SARS-CoV-2 Infection by Disrupting the Interaction of Spike Protein With Host ACE2 Receptor” (Frontiers in Pharmacology, 2020).

Target: SARS-CoV-2 spike (S) protein (SARS-CoV-2, UniProt P0DTC2)
Experiment: cell-based or functional assay

B1: chicken ovalbumin (natural protein)
chain: MGSIGAASMEFCFDVFKELKVHHANENIFYCPIAIMSALAMVYLGAKDSTRTQINKVVRFDKLPGFGDSIEAQCGTSVNVHSSLRDILNQITKPNDVYSFSLASRLYAEERYPILPEYLQCVKELYRGGLEPINFQTAADQARELINSWVESQTNGIIRNVLQPSSVDSQTAMVLVNAIVFKGLWEKAFKDEDTQAMPFRVTEQESKPVQMMYQIGLFRVASMASEKMKILELPFASGTMSMLVLLPDEVSGLEQLESIINFEKLTEWTSSNVMEERKIKVYLPRMKMEEKYNLTSVLMAMGITDVFSSSANLSGISSAESLKISQAVHAAHAEINEAGREVVGSAEAGVDAASVSEEFRADHPFLFCIKHIATNAVLFFGRCVSP
  IC50 against live SARS-CoV-2 in Vero E6 cells (CPE assay): > 50 µM
